# Measurements published in paper PMC7515726 (Nucleic Acids Research, 2020).
# Target: FLAG-hH2A.D wild-type nucleosome, 147 bp 601 DNA (ELYS pulldowns) (human, UniProt P20671;P62807;Q71DI3;P62805)
# Assay: pull-down
binder,measurement,value
"MBP-His6-TEV-ELYS^C, C-terminal fragment of human ELYS (2157-2275) (domain or fragment) SSQFVISPPALRSRQKNTSNKNKLEDELKDDAQSVETLGKPKAKRIRTSKTKQASKNTEKESAWSPPPIEIRLISPLASPADGVKSKPRKTTEVTGTGLGRNRKKLSSYPKQILRRKML",binding result,binds
